{"source": "patent US20250249111A1", "about": "“ERIBULIN-BASED ANTIBODY-DRUG CONJUGATES AND METHODS OF USE” (priority 2022, published 2025)", "assay_type_in_all_cases": "in vivo, human", "key": {"[1]": {"test_system": "platinum resistant ovarian cancer (PROC)", "experiment": "Dose-response and exposure-response (E-R) analysis for ORR in subjects with PROC", "details": "for ORR (%): PROC", "protocol": "MORAb-202 was administered to subjects (N=58) with platinum resistant ovarian cancer (PROC) over a body weight (BW)-based dose range of 0.3 to 1.2 mg/kg. All doses were administered at Q3W. A dose-response assessment was carried out to calculate a relationship between dose and objective response rate (ORR) over this dose range. Clinical pharmacology assessments were conducted to evaluate the dose relationships between MORAb-202 and objective response rates (ORR) or ILD. The dose-response relationships were calculated using logistic regression analyses. An E-R efficacy (ORR) analysis was conducted with PROC subjects (N=58) across the dose range of 0.3 to 1.2 mg/kg Q3W. […] Exposure (AUC) was the only significant predictor of the probability of an objective response in multivariate analysis (as shown in FIG. 1). Age, weight, non-high grade serous OC (versus high grade serous OC), ECOG-PS (1 vs 0), and expansion (versus dose escalation) were not significant predictors of an objective response (OR). Higher doses above 1.2 mg/kg Q3W would be expected to result in a higher probability of an OR, given linear PK and lack of saturation of OR across the current dose range. Based on the results of the E-R analysis, clinically meaningful efficacy is expected across the dose range of 0.68 to 1.2 mg/kg. However, as described in section 1.2.3, an overlapping AUC dependence to ILD is observed."}, "[2]": {"test_system": "subjects with PROC, endometrial cancer (EC), triple negative breast cancer (TNBC), and non-small cell lung cancer (NSCLC)", "experiment": "Dose-response relationship for ILD across tumor types", "protocol": "MORAb-202 was administered to subjects (N=82) with PROC, endometrial cancer (EC), triple negative breast cancer (TNBC), and non-small cell lung cancer (NSCLC) over a body weight (BW)-based dose range of 0.3 to 1.2 mg/kg. All doses were administered at Q3W. A dose-response assessment was carried out to calculate a relationship between dose and ILD rate over this dose range.\nClinical pharmacology assessments were conducted to evaluate the dose relationships between MORAb-202 and objective response rates (ORR) or ILD. The dose-response relationships were calculated using logistic regression analyses."}, "[3]": {"test_system": "subjects with PROC and across tumor types (PROC, EC, TNBC, and NSCLC)", "experiment": "Exposure-response (E-R) analysis for ILD in subjects with PROC and across all tumor types", "details": "N=96 in total (48/96); PROC 0.3 to 1.2 mg/kg Q3W and across tumor types 0.9 to 1.2 mg/kg Q3W", "protocol": "An E-R analysis of ILD was conducted with data from subjects with PROC across the dose range of 0.3 to 1.2 mg/kg Q3W as well as subjects across tumor types (PROC, EC, TNBC, and NSCLC) across the dose range of 0.9 to 1.2 mg/kg Q3W (N=96 in total). Forty-eight subjects had ILD identified by expert review for an ILD rate of 50% (48/96) across both subject groups and dose ranges. AUC and age were significant predictors in multivariate analysis with both higher AUC and higher age predicting a higher probability of ILD. Weight, albumin, ECOG-PS (1 vs 0), Study, and tumor type (OC vs other) were not significant predictors. The probability of ILD by AUC was predicted at the median age (60 years) and plotted along with the observed ILD rate for each exposure quartile (as shown in FIG. 2)."}, "[4]": {"experiment": "MORAb-202 population pharmacokinetics (PPK) model", "protocol": "Different dosing regimens were simulated to select a dose of MORAb-202 that would minimize ILD rate while maintaining a high ORR. Stochastic simulations were conducted using the MORAb-202 population pharmacokinetics (PPK) model shown in Table 13 to predict AUC and Cmax for different dosing regimens. […] BW and serum albumin were significant covariates on CL (total clearance) and BW on volume of distribution. Five dosing regimens were simulated: 1) flat dose of 63 mg; 2) BW-based dose of 0.9 mg/kg; 3) BW-based dose of 0.9 mg/kg with a maximum total dose cap of 70 mg; 4) adjusted ideal body weight (AIBW)-based dose of 1.0 mg/kg; and 5) BSA-based dose of 33 mg/m^2 (equivalent to BW-based dose of 0.9 mg/kg). All dosing regimens were simulated on a Q3W treatment cycle."}, "[5]": {"test_system": "subjects with ovarian cancer (OC) and endometrial cancer (EC)", "experiment": "Preliminary results from Phase 1/2 trial, BSA-based dosing cohorts", "source_text": "MORAb-202 will be administered as an intravenous (IV) infusion once every 3 weeks (21-day cycle). Treatment will stop upon intolerable toxicity, disease progression, or subject withdrawal for any reason. The Dose-Confirmation part will evaluate the safety and preliminary efficacy of MORAb-202 at selected dose levels in subjects with OC and EC. There will be approximately 30 subjects in the Dose-Confirmation part in 4 study treatment cohorts. If at any time ≥2 Grade ≥3 ILD/pneumonitis (National Cancer Institute Common Terminology Criteria for Adverse Events [NCI CTCAE v5.0]) events are observed, the sponsor will pause enrollment, pending IDMC review. The initial cohort will enroll 6 subjects at 25 mg/m^2 of MORAb-202. The dosing regimen for this study is body surface area (BSA)-based dosing. The dose levels to be used in this portion of the study have been matched to body weight doses of 0.9 mg/kg and 0.68 mg/kg with BSA doses of 33 mg/m^2 and 25 mg/m^2 respectively. The BSA dose equivalents were confirmed using predictions from a MORAb-202 population PK model (described in Example 1). This revised dosing regimen has been implemented in the Dose-Confirmation part of this study due to the potential to reduce the ILD risk in higher body weight subjects whilst using doses within the therapeutic index of MORAb-202. The dose evaluation part of the study was designed with two sequential cohorts at 25 mg/m^2 and 33 mg/m^2. Enrollment has been completed in the two sequential cohorts. A total of 14 subjects were enrolled and treated with MORAb-202 with 7 subjects in each cohort. Further investigation will continue at 25 mg/m^2 Q3W. […] BSA-based dosing decreased the total amount of drug (mg) compared with BW-based estimated total dose in most subjects. Additional testing is planned for every two weeks and for once per week dosing regimens."}, "[6]": {"details": "PROC subjects (N=58), 0.3 to 1.2 mg/kg Q3W"}, "[7]": {"details": "BW-based dose 0.45 mg/kg Q3W, N = 3"}, "[8]": {"details": "BW-based dose 1.2 mg/kg Q3W, N = 24"}, "[9]": {"details": "25 mg/m^2 Q3W, preliminary, 7 subjects per cohort"}}}
{"substance": "MORAb-202", "values": [{"measurement": "ORR", "setting": "[1]; PROC subjects (N=58) across the dose range of 0.3 to 1.2 mg/kg Q3W (23/58)", "value": 39.7, "unit": "%"}, {"measurement": "subjects with a CR (complete response)", "setting": "[1]; [6]", "value": 2}, {"measurement": "subjects with a PR (partial response)", "setting": "[1]; [6]", "value": "Twenty-one"}, {"measurement": "ORR (%)", "setting": "[1]; BW-based dose 0.3 mg/kg Q3W, N = 1", "value": "0 (0) %"}, {"measurement": "ORR (%)", "setting": "[1]; [7]", "value": "0 (0) %"}, {"measurement": "ORR (%)", "setting": "[1]; BW-based dose 0.68 mg/kg Q3W, N = 2", "value": 50, "unit": "%"}, {"measurement": "ORR (%)", "setting": "[1]; BW-based dose 0.9 mg/kg Q3W, N = 28, 0.9 mg/kg", "value": 32.1, "unit": "%"}, {"measurement": "ORR (%)", "setting": "[1]; [8]", "value": 54.2, "unit": "%"}, {"measurement": "ILD (%)", "setting": "[2]; BW-based dose 0.3 mg/kg Q3W, N = 3", "value": "0 (0) %"}, {"measurement": "ILD (%)", "setting": "[2]; [7]", "value": "0 (0) %"}, {"measurement": "ILD (%)", "setting": "[2]; BW-based dose 0.68 mg/kg Q3W, N = 6", "value": 16.7, "unit": "%"}, {"measurement": "ILD (%)", "setting": "[2]; BW-based dose 0.9 mg/kg Q3W, N = 46", "value": 37.0, "unit": "%"}, {"measurement": "ILD (%)", "setting": "[2]; [8]", "value": 58.3, "unit": "%"}, {"measurement": "ILD rate (ILD identified by expert review)", "setting": "[3]", "value": 50, "unit": "%"}, {"measurement": "dose proportionality of exposures", "setting": "[4]; PPK analysis", "value": "dose proportional"}, {"measurement": "Inter-Individual Variabilty R CL-V1", "setting": "[4]; final PPK model", "value": 0.577}, {"measurement": "Q, estimate", "setting": "[4]; final PPK model", "value": 0.008039, "unit": "L/h"}, {"measurement": "Residual Additive (SD, ug/mL)", "setting": "[4]; final PPK model", "value": 0.0992, "unit": "µg/mL"}, {"measurement": "V1, estimate", "setting": "[4]; final PPK model", "value": 2.482, "unit": "L"}, {"measurement": "V2, estimate", "setting": "[4]; final PPK model", "value": 1.875, "unit": "L"}, {"measurement": "CL (total clearance), estimate", "setting": "[4]; final PPK model, 2-compartment, IV infusion", "value": 0.01595, "unit": "L/h"}, {"measurement": "BW on V1 (exponent), estimate", "setting": "[4]; final PPK model, covariate", "value": 0.559}, {"measurement": "Mean PK profiles compared with those of a 0.68 mg/kg dose", "setting": "[5]; 25 mg/m^2, MORAb-202, total antibody, and released eribulin", "value": "comparable"}, {"measurement": "anti-tumor activity", "setting": "[5]; [9]", "value": "initial anti-tumor activity"}, {"measurement": "safety", "setting": "[5]; [9]", "value": "Acceptable safety"}]}
